Source: US20240269235A1
Read-outs that look alike come from different tables or passages of the source.

What was measured:
Assay in all cases: cell-based or functional assay
[1] = biological target: human IL-2Rα on Treg cells (CD3+, CD4+, CD25hi, FoxP3+) of human PBMC (human) (UniProt P01589)
[2] = biological target: trimeric murine IL-2 receptor (IL-2Rα, IL-2Rβ, and IL-2Rγ) on CTLL-2 cells (murine) (UniProt P01590)
[3] = biological target: trimeric murine IL-2 receptor (IL-2Rα, IL-2Rβ, and IL-2Rγ) on CTLL-2 cells (murine) (UniProt P01590); remark: listed apart in the source

Sequence of trimeric murine IL-2 receptor (IL-2Rα, IL-2Rβ, and IL-2Rγ) on CTLL-2 cells (murine) (P01590 22-268, chain 1 of 3): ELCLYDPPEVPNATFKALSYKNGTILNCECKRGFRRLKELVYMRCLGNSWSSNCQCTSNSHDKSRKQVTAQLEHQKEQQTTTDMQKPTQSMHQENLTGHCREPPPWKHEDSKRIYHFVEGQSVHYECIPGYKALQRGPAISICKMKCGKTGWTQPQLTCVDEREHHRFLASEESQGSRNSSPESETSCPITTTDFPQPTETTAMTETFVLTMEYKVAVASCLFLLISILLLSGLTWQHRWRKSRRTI
Sequence of trimeric murine IL-2 receptor (IL-2Rα, IL-2Rβ, and IL-2Rγ) on CTLL-2 cells (murine) (P16297 27-539, chain 2 of 3, further chain): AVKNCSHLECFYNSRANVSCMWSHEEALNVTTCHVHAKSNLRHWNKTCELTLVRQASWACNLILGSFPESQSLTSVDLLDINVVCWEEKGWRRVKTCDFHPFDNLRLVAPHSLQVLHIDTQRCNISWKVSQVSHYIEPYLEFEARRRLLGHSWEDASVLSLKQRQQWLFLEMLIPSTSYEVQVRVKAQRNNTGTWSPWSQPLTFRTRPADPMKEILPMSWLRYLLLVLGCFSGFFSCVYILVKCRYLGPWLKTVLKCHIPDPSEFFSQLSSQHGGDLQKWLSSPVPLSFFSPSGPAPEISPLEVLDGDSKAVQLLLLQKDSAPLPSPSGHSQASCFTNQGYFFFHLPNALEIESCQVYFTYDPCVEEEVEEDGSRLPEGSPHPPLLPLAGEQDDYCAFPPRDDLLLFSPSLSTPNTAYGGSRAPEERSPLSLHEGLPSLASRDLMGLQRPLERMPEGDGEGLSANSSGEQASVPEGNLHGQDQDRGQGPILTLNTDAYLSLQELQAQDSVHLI
Sequence of trimeric murine IL-2 receptor (IL-2Rα, IL-2Rβ, and IL-2Rγ) on CTLL-2 cells (murine) (P34902 23-369, chain 3 of 3, further chain): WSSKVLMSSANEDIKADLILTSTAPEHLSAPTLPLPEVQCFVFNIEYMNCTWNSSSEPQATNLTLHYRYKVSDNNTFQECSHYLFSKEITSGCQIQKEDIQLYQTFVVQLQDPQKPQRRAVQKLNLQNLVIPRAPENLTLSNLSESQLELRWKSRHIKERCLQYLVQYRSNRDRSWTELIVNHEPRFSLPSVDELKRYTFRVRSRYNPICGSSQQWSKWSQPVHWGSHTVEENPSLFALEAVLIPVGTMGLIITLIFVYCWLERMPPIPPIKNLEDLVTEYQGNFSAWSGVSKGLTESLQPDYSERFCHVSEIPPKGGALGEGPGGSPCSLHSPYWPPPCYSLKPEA
Sequence of human IL-2Rα on Treg cells (CD3+, CD4+, CD25hi, FoxP3+) of human PBMC (human) (P01589 22-272): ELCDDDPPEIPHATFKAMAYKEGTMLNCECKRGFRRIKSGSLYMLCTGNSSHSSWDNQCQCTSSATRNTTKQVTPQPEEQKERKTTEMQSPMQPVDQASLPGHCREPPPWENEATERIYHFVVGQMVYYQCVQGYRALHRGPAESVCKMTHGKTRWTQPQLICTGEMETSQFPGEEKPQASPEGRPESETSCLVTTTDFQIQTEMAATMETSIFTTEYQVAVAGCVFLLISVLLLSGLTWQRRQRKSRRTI

Treg EC50, STAT5 activation (PBMC STAT5 assay) [1]: < 1 pM
STAT5 activation of CTLL-2 cells, EC50 [2]: 6 pM
STAT5 activation of CTLL-2 cells, EC50 [3]: 2 pM
Substance: Proleukin (from UniProt P60568 22-153) (ligand)
